# Assay: soluble on expression in E. coli; label from the status in PepcDB or PDB records
row,Sequence,soluble on expression in E. coli
1,MSLRKHCIAIGGGGWMMGENPSPLYQYILSLSGKENPNICFLPTATGDADEVIERFYNAKLSENVTHFPLFKFDAGWKETLFEQDIIYVGGGNTRSMLAIWREWGIDRILKQCYEQGIIICGMSAGAICWFEFAVTDSDPEAYQVMRCLGLIDGLAAAHFSHVGEKFEVFQAFARSQPSITCYGIHDYAALHFVDGKLLATVTSFPDAGVLVKTGNDENILRGEGHHHHHH,soluble
2,MSLELNFSQTLGNHCLTINETLPANGITAIFGVSGAGKTSLINAISGLTRPQKGRIVLNGRVLNDAEKGICLTPEKRRVGYVFQDARLFPHYKVRGNLRYGMSKSMVDQFDKLVALLGIEPLLDRLPGSLSGGEKQRVAIGRALLTAPELLLLDEPLASLDIPRKRELLPYLQRLTREINIPMLYVSHSLDEILHLADRVMVLENGQVKAFGALEEVWGSSVMNPWLPKEQQSSILKVTVLEHHPHYAMTALALGDQHLWVNKLGEPLQAALRIRIQASDVSLVLQPPQQTSIRNVLRAKVVNSYDDNGQVEVELEVGGKTLWARISPWARDELAIKPGLWLYAQIKSVSITEGHHHHHH,soluble
3,MGHHHHHHSHMHGPKPTVQEIVLELCPCNEIEPVDLVCHEQLGDSDDEIDEPDHAVNHHQHQLLARRDEQQRHTIQCTCCKCNNLLQLVVEASRENLRKLELLFMDSLNFVCPWCATETQ,not soluble
4,MKHSLPDLPYDYADLEPVISHEIMQLHHQKHHATYVNNLNQIEEKLHEAVSKGNVKEAIALQPALKFNGGGHINHSIFWTNLAKDGGEPSAELLTAIKSDFGSLDNLQKQLSASTVAVQGSGWGWLGYCPKGKILKVATCANQDPLEATTGLVPLFGIDVWEHAYYLQYKNVRPDYVNAIWKIANWKNVSERFAKAQQ,soluble
5,MESINYQILKRSEKKLLGLFFDYFQHVIKMHETLNKLLCEADVTKREKLIQAIYEMEDFSNKSEFKLINESIWAISKNSPLTNHLRLTITIIMCSRDLERICDYANNLTKFVKHYQHLDVSIFSKLVNLHKSVLNNLKQTFASLQDKEKPLTIQFENVTKILTEFEQQYRVVLTEYYDKVKDEKLSDRIFLIDLILSVKHIERINDYCYNIIKAFLFVKNPEVFN,soluble
6,MSTLGDLLAEHTVLPGSAVDHLHAVVGEWQLLADLSFADYLMWVRRDDGVLVCVAQCRPNTGPTVVHTDAVGTVVAANSMPLVAATFSGGVPGREGAVGQQNSCQHDGHSVEVSPVRFGDQVVAVLTRHQPELAARRRSGHLETAYRLCATDLLRMLAEGTFPDAGDVAMSRSSPRAGDGFIRLDVDGVVSYASPNALSAYHRMGLTTELEGVNLIDATRPLISDPFEAHEVDEHVQDLLAGDGKGMRMEVDAGGATVLLRTLPLVVAGRNVGAAILIRDVTEVKRRDRALISKDATIREIHHRVKNNLQTVAALLRLQARRTSNAEGREALIESVRRVSSIALVHDALSMSVDEQVNLDEVIDRILPIMNDVASVDRPIRINRVGDLGVLDSDRATALIMVITELVQNAIEHAFDPAAAEGSVTIRAERSARWLDVVVHDDGLGLPQGFSLEKSDSLGLQIVRTLVSAELDGSLGMRDARERGTDVVLRVPVGRRGRLML,not soluble
7,AAVLTQDKNTPTYGPANGKVTVIEFFDYQCVYCSRLAPVMEQVIKAHPQTRFAFKEWPIFGGRWESSLEAAKTGLQIYQQKGADAYLAYHNGIYATGHNEGKLTTADIQQQAKKAGFDAKKAADVEPVLQSINDLAQEIGLSGTPGVIVMPTTGATEASITVFPGLADKASLEAAIKKAGG,not soluble
8,MELIDKFITLHDQLRKDLNLASLCISKAKTTHGIGLFSVNSVDTHDLEPSIRLDTKNGKFVLLKNSENEEEKNDKKNKKKKDENKSEKKNSGESEDVEEAKKTFSGQFRPFGVLEPAAAKDARKIYRNSIQTILDLVSTQQSILAKSRQLVEDC,not soluble
9,MSVIIVGGGMAGATLALAISQFSHGTLPVHLIEAKAPEADGHPGFDARAIALAAGTCQQLARIGVWQAISDCATAINTVHVSDRGHAGFVTLDAQDYSLAALGHVAELHDIGLRLFALLRKAPGVTLHCPERVASVSRTQQQVNVTLENGNVIAGSVLVAANGTHSALASRCGVDWHQEPYEQLAVIANVATAIPHQGRAFERFTPNGPLAMLPMSHGRCSLVWCHPLDQRDEVLSWSDAQFCHALQAAFGWRLGRITQAGKRSAYPLALTTAAKVFSHRTVVVGNAAQTLHPIAGQGFNLGLRDVMSLAETLVAAQDAGEDIGAWHVLSRYQQRRQVDRDTTIGVTNGLVHLFANRWAPLVIGRNIGLMAMELLPPARDALAQRTLGWVARLEHHHHHH,not soluble
10,MSLAQIDFRKKINWHRRYRSPQGVKTEHEILRIFESDRGRIINSPAIRRLQQKTQVFPLERNAAVRTRLTHSMEVQQVGRYIAKEILSRLKELKLLEAYGLDELTGPFESIVEMSCLMHDIGNPPFGHFGEAAINDWFRQRLHPEDAESQPLTDDRCSVAALRLRDGEEPLNELRRKIRQDLCHFEGNAQGIRLVHTLMRMNLTWAQVGGILKYTRPAWWRGETPETHHYLMKKPGYYLSEEAYIARLRKELNLALYSRFPLTWIMEAADDISYCVADLEDAVEKRIFTVEQLYHHLHEAWGQHEKGSLFSLVVENAWEKSRSNSLSRSTEDQFFMYLRVNTLNKLVPYAAQRFIDNLPAIFAGTFNHALLEDASECSDLLKLYKNVAVKHVFSHPDVERLELQGYRVISGLLEIYRPLLSLSLSDFTELVEKERVKRFPIESRLFHKLSTRHRLAYVEAVSKLPSDSPEFPLWEYYYRCRLLQDYISGMTDLYAWDEYRRLMAVEQEGHHHHHH,soluble
11,TYDGKVESVVLGFATEVPEPWVTEKLSITEEELVYKIIRLRIIEDVPSIIEYTWMPVALIPNLTMKELKVSIYQYISEQLHQKIQSARVSISGIRPSPLEKKYLNLTDNDFLMRAEQIAYLGNGHIFEYSIANHIPSEFTFETVLIAEK,not soluble
12,MGSDKIHHHHHHMNAMTQVSPLLEMRGICKTFPGVKALDDVSFDIYPGEVHMLLGENGAGKSSLMKVLCGVYVADAGEFHHQGQRVEVSGPADTMRLGIAVIFQEFSLVPYLDIAQNIFLGREPRGRVPGSVDHAKMHAEARRLLDTLGMDISTHTPVHRLGVAQQQMIEIAKALSQNARILVLDEPTAALSERETEKLFGVIARLKADGVSMIYISHRMAEVFALGDRITVMRDGRKVGSYMPGDATPDELVARMVGRKVDMGYTRTRGGPVGEVALDMQGVSADNGIDDITLQVRAGEIVGLAGLVGSGRSEVARAVFGADPVRAGEIRIFGKSMRGGPDKARALGAALIPESRKTEGLALIRSVRDNLLLAGLRRAFPAHWYRSGKAAQLSTREIGRLRIATPSGDQLAQFLSGGNQQKIVIGKWLVAESRLFIFDEPTRGIDVGAKAEIFALIDGLVKQGAAVLLISSELPEIINVCDRTYVMRGGRVAGELAHDAMTEESILQLGMNDA,not soluble
13,RPVWYGEPVDIQPEHRDMMLVVDLSGSMAEEDMKTSNGDFVDRLTAVKQVVSDFIDQRKGDRLGLVLFGDHAYLQTPLTFDRNTVREQLDRTVLNLVGQRTAIGEGLGLATKTFIESNAPQRTIILLSDGANTAGVLEPLEAAQLAKDNHAKIYTVGIGAGEMQVRGFFGKQTVNTARDLDEDTLTKIATMTGGQYFRARNADELAEIYQTI,not soluble
14,MGSDKIHHHHHHMENQNHAFNYAYLLKQVKARVLLAQKKAIYTANEEMLSMYWDIGKLLSESQKQIGWGNNALEKLANDLKNDYPEMKGFSVRNCQFMIQFYNEYNQQLTNTKRAVSYLNNNEIVLPISKLGWSHNITLMQRTKDIKARYWYMIQCLKNGWSRDFLIEAIKQDYYHSHGALASNFDTTLPEIQAKQVKETLKDPYIFDMLTFTEEYDERDIELGLIKHIEKFLVEMGAGFAFMGRQYHIEVSEKDFYIDILMYNAFMHRYLVVELKRGEFQPEYIGKLNFYCSAVDDILCREGDNPTIGLLLCQNKDQIMAEYALRDVHKPIGISDYELGQALPKDIKSGLPSIEELENKLSRDLQDIDNKE,not soluble
15,MARPETESKTIFGKRLRYVRLALGDPSREALAKSFSMTKNSIAFYERGEREPNLSVLQTYRTLYGVNINWLLTGQGKMFDTEYTKGDFDWNYFIKKIEGLEEILSNSDRSEKLNQEKIESSYEKLQQYLSRQGSTNRYTPKAATSLIDMKAKMANSYALSLFIDLLIRSISQKEVVANQ,not soluble
16,MRQRTIVCPLIQNDGCYLLCKMADNRGVFPGQWALSGGGVEPGERIEEALRREIREELGEQLILSDITPWTFRDDIRIKTYADGRQEEIYMIYLIFDCVSANRDICINDEFQDYAWVKPEELALYDLNVATRHTLALKGLL,not soluble
17,MGSDKIHHHHHHMGRRSHSRSLSIWTNGVRVGRWTVPARGEMELQYDVDWVRADVGRPLSLSLPFNLQNLPLKGERVANYFDNLLPDSDAIRRRVAERFRTGSVDPFDLLKAIGRDCVGAVQILEDEEIPEGFDRIEGVPLSEEDIERHLIETVTPRAFAAGRDPDADFRISLAGAQEKTAFLWWGGQWLAPRGATSTSHIFKLPLGLVGGRRADFSTSVDNEWLCLKLLKAYGLDVAEASIATFGQQRVLVVERFDRRVAPNGQWLMRLPQEDFCQVEGCSPLRKYENEGGPGLKALFATLRQSVNAAVDMRTLMAAQILFWLLRAPDGHAKNFSIQLLPRGRFQLTRLYDVMSAYPVLGDGANQWSPFEIKLAMALIGKNRHYEMHGIQRRHFNSTAQKVGYGPTAEPIIEDLLARTPAIIAAVQADLPQDFSPRVADSVLGGLAQAAKSLGAMMP,not soluble
18,MIGNVKMEYASASEEYLTESEMDEYLDDLRSKIPSFIVELLKNNLKNRKLTRPQLDKIVGRVSDLYFGKKPEDKKAAELTNKINDLSQKLDALMKVATISSATKVSDDIKKELNYLDDEKIEVPEISKAVEVPEIIEEPEISIEPVEEPVVEPVKIIEKQTVEPIIEFKEEPKIEKVVSKVPLEIEEGNNMRPELTPAVETTARLQELPEDTLSTMLVFKWLEFLISRVGTGNLIDVLDYYHNLGWVSGKAISKLMKVSKNMKYFHEDIDWKANECMAPEDHVVSLLYIEKLAGRPIAVEELEGMEREINRIKKWAEELQKM,not soluble
19,MGSSHHHHHHSSGLVPRGSHMDAETVGRVKRFIQENVFVAANHNGSPLSIKEAPKELSFGARAELPRIHPVASKLLRLMQKKETNLCLSADVSLARELLQLADALGPSICMLKTHVDILNDFTLDVMKELITLAKCHEFLIFEDRKFADIGNTVKKQYEGGIFKIASWADLVNAHVVPGSGVVKGLQEVGLPLHRGCLLIAEMSSTGSLATGDYTRAAVRMAEEHSEFVVGFISGSRVSMKPEFLHLTPGVQLEAGGDNLGQQYNSPQEVIGKRGSDIIIVGRGIISAADRLEAAEMYRKAAWEAYLSRLGV,soluble
20,MGSDKIHHHHHHVSTSVTKRPLTLVLASPRGFCAGVDRAIHIVERALEKYGAPVYVRHEIVHNRFVVESLAQKGAVFVEELDEVPDEAAVVFSAHGVPKTVPAEADRRGLTSLDATCPLVTKVHREAELHHAMGRQIIMIGHAGHPEVIGTIGQVPDGTVLLVGTPEEAEKVAPKNASMLAYITQTTLSVDDAAAVTEVLQRRFPEIVGPKREDICYATTNRQAAVKTIAPKCEALMVIGSPNSSNSSRLVEVAARAGCARSVLVQRAAEVDWSLLDGVDRLGITAGASAPEILVEEVVAAARERFDVTIEEIRVTTETVTFKLPQALSE,not soluble
21,MAHHHHHHMAEQFTEDIGVVNKRLLEPVPFVKTNNCIKDVDADLFIRSYATHLKLHNKITYPKWCTFVKTGKGRKLAPLNEDWYFIRASSILRRLYLHPDIGVGFLRRQFSSKQRRGVAPNHTSLASGKILRSILQQLENLGYVEQNPKKKGRRLTTKGENAINNFARYINKKVYNKE,not soluble
